From patent publication US20240025993A1 (Novartis, published 2024)
Positions count from the first letter of the chain named. Numbers in names are those of the source.

Columns and labels:
[1] = target: T1, human C1q (human, UniProt P02745 23-245; P02746 28-253; P02747 29-245); assay: SPR (Biacore T200), antibody amine-coupled on CM5 chip, C1q as analyte
T1 construct: also called hC1q
Method: (§1) Binding to human C1q was evaluated. All SPR buffers were prepared using deionized water. The samples were prepared in running buffer PBS pH 7.4 with 0.005% Tween-20. SPR measurements were measured on a Biacore T200 (GE-Healthcare Life Sciences) controlled by Biacore T200 control software version 2.0.1. Surface plasmon resonance was conducted using a Biacore T200 to assess binding affinity of antibody IgG1 WT and variants to human Fc receptors, including FcγR1A, and FcγR3A (V158) and human C1q.
(§2) The antibodies were covalently immobilized on a CM5 sensor chip whereas Fc gamma receptors or human C1q served as analytes in solution (FIG. 38). For Fc gamma receptors binding evaluation (method 1), antibodies were diluted in 10 mM sodium acetate pH 4 and immobilized at a density of approximately 950 resonance units (RU's) on the CM5 sensor chip applying a standard amine coupling procedure. Flow cell 1 was blank immobilized to serve as a reference. The kinetic binding data were collected by subsequent injections of 1:2 dilution series of the human Fc gamma receptors on all flow cells at a flow rate of 30 μl/min and at a temperature of 25° C. The Fc gamma receptors were diluted in the running buffer at concentrations ranging from 0.2 nM to 1000 nM (e.g. FcγR1A: 0.2 to 100 nM, FcγR3A V158: 1.95 to 1000 nM). The chip surface was regenerated using 20 mM glycine pH 2.0 solution after each measuring cycle. For human C1q binding evaluation (method 2), antibodies were diluted in 10 mM sodium acetate pH 4 and immobilized at a density of approximately 7000 resonance units (RU's) on the CM5 sensor chip applying a standard amine coupling procedure. Flow cell 1 was blank immobilized to serve as a reference. The kinetic binding data were collected by subsequent injections of 1:2 dilution series of the human C1q on all flow cells at a flow rate of 30 μl/min and at a temperature of 25° C. The human C1q was diluted in the running buffer at concentrations ranging from 0.49 nM to 250 nM. The chip surface was regenerated using 50 mM NaOH solution after each measuring cycle. Zero concentration samples (blank runs) were measured for both methods to allow double-referencing during data evaluation.
(§3) Data were evaluated using the Biacore T200 evaluation software.

[2] = target: T2, human Fc gamma receptor 1A (human, UniProt P12314 16-288, limits assumed); assay: SPR (Biacore T200), antibody amine-coupled on CM5 chip, receptor as analyte
T2 construct: also called hFcgammaRIA; hFcγRIA
T2 sequence (P12314 16-288 limits assumed): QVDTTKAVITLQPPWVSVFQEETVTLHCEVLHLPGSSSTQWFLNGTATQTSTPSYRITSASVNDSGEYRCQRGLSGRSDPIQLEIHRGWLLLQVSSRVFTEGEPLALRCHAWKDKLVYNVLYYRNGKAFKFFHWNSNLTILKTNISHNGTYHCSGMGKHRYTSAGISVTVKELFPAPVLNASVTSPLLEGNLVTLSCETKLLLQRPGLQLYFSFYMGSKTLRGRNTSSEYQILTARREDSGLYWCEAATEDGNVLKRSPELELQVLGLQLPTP
Method: as §1, §2, §3

[3] = target: T3, human Fc gamma receptor 3A, V158 variant (human, UniProt P08637 17-208); assay: as above
T3 construct: also called hFcgammaRIIIA V158; FcγR3A (V158)
T3 sequence (P08637 other isoform, or with tags, fused parts or gaps mutant): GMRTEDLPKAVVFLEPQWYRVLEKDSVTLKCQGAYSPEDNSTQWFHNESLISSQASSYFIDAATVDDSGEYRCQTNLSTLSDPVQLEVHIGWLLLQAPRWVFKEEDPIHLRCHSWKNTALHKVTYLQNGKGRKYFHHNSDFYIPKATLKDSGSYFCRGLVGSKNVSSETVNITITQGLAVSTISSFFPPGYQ
Method: as §1, §2, §3

[4] = target: T4, human CD19 (human, UniProt P15391 20-556); assay: summary sentence of the examples; no method at this place
T4 construct: whole, on cells; also called huCD19; hCD19
T4 sequence (looked up): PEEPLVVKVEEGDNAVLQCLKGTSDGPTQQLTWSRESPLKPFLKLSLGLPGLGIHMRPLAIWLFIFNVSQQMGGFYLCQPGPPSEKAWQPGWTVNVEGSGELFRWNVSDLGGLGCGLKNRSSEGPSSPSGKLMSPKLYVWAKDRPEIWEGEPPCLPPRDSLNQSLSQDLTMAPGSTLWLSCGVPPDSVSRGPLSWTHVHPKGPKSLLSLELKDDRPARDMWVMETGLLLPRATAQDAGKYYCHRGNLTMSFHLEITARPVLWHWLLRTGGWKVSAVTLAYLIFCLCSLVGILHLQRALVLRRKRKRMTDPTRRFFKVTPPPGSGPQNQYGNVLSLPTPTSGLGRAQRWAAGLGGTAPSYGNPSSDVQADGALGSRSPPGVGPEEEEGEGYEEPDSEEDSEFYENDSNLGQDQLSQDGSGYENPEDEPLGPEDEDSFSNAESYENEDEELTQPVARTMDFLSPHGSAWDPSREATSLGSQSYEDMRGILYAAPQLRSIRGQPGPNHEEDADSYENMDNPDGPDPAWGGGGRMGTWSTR

[5] = target: T2, human Fc gamma receptor 1A; assay: SPR (Biacore T200), antibody amine-coupled on CM5 chip, human FcγRIA as analyte; maximum response (RU)
Method: Surface plasmon resonance was conducted using a Biacore T200 to assess binding affinity of antibody WT and variants to human FcγR1A.
The antibodies were covalently immobilized on a CM5 sensor chip whereas Fc gamma receptor 1A served as analyte in solution (FIG. 38). Antibodies were diluted in 10 mM sodium acetate pH 4 and immobilized at a density of approximately 950 resonance units (RU) on the CM5 sensor chip applying a standard amine coupling procedure. Flow cell 1 was blank immobilized to serve as a reference. The kinetic binding data were collected by subsequent injections of 1:2 dilution series of the human Fc gamma receptor 1A on all flow cells at a flow rate of 30 μl/min and at a temperature of 25° C. […] The chip surface was regenerated using 20 mM glycine pH 2.0 solution after each measuring cycle. Zero concentration samples (blank runs) were measured to allow double-referencing during data evaluation.
Data were evaluated using the Biacore T200 evaluation software. The raw data were double referenced, i.e. the response of the measuring flow cell was corrected for the response of the reference flow cell, and in a second step the response of a blank injection was subtracted. Then the sensorgrams were fitted by applying a 1:1 kinetic binding model to calculate dissociation equilibrium constants. In addition, the maximum response reached during the experiment was monitored. Maximum response describes the binding capacity of the surface in terms of the response at saturation.

T1 sequence (P02745 23-245 limits assumed, chain 1 of 3): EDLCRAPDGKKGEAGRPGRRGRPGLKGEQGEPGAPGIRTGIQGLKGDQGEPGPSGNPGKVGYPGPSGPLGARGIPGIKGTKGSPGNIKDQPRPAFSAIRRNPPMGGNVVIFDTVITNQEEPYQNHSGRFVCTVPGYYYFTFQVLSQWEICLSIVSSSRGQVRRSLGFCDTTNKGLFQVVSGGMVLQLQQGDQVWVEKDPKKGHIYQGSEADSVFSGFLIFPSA
T1 sequence (P02746 28-253 limits assumed, chain 2 of 3): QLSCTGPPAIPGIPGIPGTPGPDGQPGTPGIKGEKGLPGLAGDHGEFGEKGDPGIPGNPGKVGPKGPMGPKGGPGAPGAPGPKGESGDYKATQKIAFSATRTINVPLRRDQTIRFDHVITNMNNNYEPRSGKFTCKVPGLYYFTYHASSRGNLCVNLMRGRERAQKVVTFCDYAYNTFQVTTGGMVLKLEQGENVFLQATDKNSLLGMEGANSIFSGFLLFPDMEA
T1 sequence (P02747 29-245 limits assumed, chain 3 of 3): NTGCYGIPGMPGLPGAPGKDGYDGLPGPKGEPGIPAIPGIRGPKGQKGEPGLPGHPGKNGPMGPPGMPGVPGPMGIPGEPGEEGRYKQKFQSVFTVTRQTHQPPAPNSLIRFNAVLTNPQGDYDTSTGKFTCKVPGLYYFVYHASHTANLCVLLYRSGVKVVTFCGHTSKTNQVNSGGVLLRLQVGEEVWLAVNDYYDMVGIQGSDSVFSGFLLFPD

B1: Anti-CD3 human IgG1 antibody, R214K allotype (antibody)
heavy: not shown
light: QAVVTQEPSLTVSPGGTVTLTCRSSTGAVTTSNYANWVQQKPGQAPRGLIGGTNKRAPWTPARFSGSLLGDKAALTLSGAQPEDEAEYFCALWYSNLWVFGGGTKLTVLGQPKAAPSVTLFPPSSEELQANKATLVCLISDFYPGAVTVAWKADSSPVKAGVETTTPSKQSNNKYAASSYLSLTPEQWKSHRSYSCQVTHEGSTVEKTVAPTECS
notes: also called WT allotype; WT allotype R214K
Maximum response at 250 nM hC1q (RU) [1]: 640 RU | Maximum response at 100 nM hFcgammaRIA (RU) [2]: 193 RU | Maximum response at 1000 nM hFcgammaRIIIA V158 (RU) [3]: 72 RU

B2: NEG218 (antibody, V domains shown)
VH: EVQLVQSGAEVKKPGESLKISCKASGYSFTNYWMNWVRQMPGKGLEWMGMIHPSDSEIRLNQKFQGQVTLSVDKSIGTAYMQWSSLKASDTAMYYCSRWYYLSSPMDYWGQGTTVTVSS
VL: EIVMTQSPATLSVSPGERATLSCRASQDVGTAVAWYQQKPGQAPRLLIYWASTRHTGIPARFSGSGSGTEFTLTISSLQSEDFAVYFCQQYSSYPYTFGQGTKLEIK
notes: also called CD19 antibody NEG218; anti-CD19 antibody NEG218
binding result [4]: binds

B3: NEG258 (antibody, V domains shown)
VH: QVQLVQSGAEVKKPGASVKVSCKASGYTFTTYWIQWVRQAPGQRLEWMGAVYPGDADTRYTQKFQGRVTLTADRSASTAYMELSSLRSEDTAVYYCGRDAGLEYYALDYWGQGTLVTVSS
VL: EIVMTQSPATLSVSPGERATLSCRASQDVGTAVAWYQQKPGQAPRLLIYWASTRHTGIPARFSGSGSGTEFTLTISSLQSEDFAVYFCQQYANFPLYTFGQGTKLEIK
notes: also called CD19 antibody NEG258; anti-CD19 antibody NEG258
binding result [4]: binds

B4: Anti-CD19-CD3 / CD58 trispecific antibody, DANAPA IgG1 Fc (Table 33) (other)
heavy: QVQLVQSGAEVKKPGASVKVSCKASGYTFTTYWIQWVRQAPGQRLEWMGAVYPGDADTRYTQKFQGRVTLTADRSASTAYMELSSLRSEDTAVYYCGRDAGLEYYALDYWGQGTLVTVSSASTKGPSVFPLAPSSKSTSGGTAALGCLVKDYFPEPVTVSWNSGALTSGVHTFPAVLQSSGLYSLSSVVTVPSSSLGTQTYICNVNHKPSNTKVDKRVEPKSCGGGGSGGGGSEVQLVESGGGLVQPGGSLKLSCAASGFTFNTYAMNWVRQASGKGLEWVGRIRSKYNNYATYYADSVKDRFTISRDDSKSTLYLQMNSLKTEDTAVYYCVRHGNFGNSYVSWFAYWGQGTLVTVSSGGGGSGGGGSGGGGSGGGGSQAVVTQEPSLTVSPGGTVTLTCRSSTGAVTTSNYANWVQQKPGQAPRGLIGGTNKRAPWTPARFSGSLLGDKAALTLSGAQPEDEAEYFCALWYSNLWVFGGGTKLTVLGGGGSDKTHTCPPCPAPELLGGPSVFLFPPKPKDTLMISRTPEVTCVVVAVSHEDPEVKFNWYVDGVEVHNAKTKPREEQYASTYRVVSVLTVLHQDWLNGKEYKCKVSNKALAAPIEKTISKAKGQPREPQVCTLPPSREEMTKNQVSLSCAVKGFYPSDIAVEWESNGQPENNYKTTPPVLDSDGSFFLVSKLTVDKSRWQQGNVFSCSVMHEALHNHYTQKSLSLSPGK
chain: SQQIYGVVYGNVTFHVPSNVPLKEVLWKKQKDKVAELENSEFRAFSSFKNRVYLDTVSGSLTIYNLTSSDEDEYEMESPNITDTMKFFLYVLESGGGGSDKTHTCPPCPAPELLGGPSVFLFPPKPKDTLMISRTPEVTCVVVAVSHEDPEVKFNWYVDGVEVHNAKTKPREEQYASTYRVVSVLTVLHQDWLNGKEYKCKVSNKALAAPIEKTISKAKGQPREPQVYTLPPCREEMTKNQVSLWCLVKGFYPSDIAVEWESNGQPENNYKTTPPVLDSDGSFFLYSKLTVDKSRWQQGNVFSCSVMHEALHNHYTQKSLSLSPGK
light: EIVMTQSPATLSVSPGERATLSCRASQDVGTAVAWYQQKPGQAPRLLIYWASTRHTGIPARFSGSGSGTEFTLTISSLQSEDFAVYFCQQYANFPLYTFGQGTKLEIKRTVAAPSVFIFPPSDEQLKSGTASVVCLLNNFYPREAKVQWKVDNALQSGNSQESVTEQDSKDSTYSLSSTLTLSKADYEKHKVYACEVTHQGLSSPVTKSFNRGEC
binding result [5]: no binding (tested: 25 nM)

B5: Anti-CD19-CD3 / CD58 trispecific antibody, GADAPASK IgG1 Fc (Table 33) (other)
heavy: B4 heavy with G509A, S539K, A569N
chain: B4 chain with G116A, S146K, A176N
light: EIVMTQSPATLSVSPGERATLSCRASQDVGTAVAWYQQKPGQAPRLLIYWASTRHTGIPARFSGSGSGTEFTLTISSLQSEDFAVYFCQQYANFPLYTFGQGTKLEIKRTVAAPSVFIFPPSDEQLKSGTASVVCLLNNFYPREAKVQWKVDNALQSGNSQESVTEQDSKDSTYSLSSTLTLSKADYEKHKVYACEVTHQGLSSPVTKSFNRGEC
binding result [5]: no binding (tested: 25 nM)

B6: Anti-CD19-CD3 / CD58 trispecific antibody, LALASKPA IgG1 Fc (Table 33) (other)
heavy: B4 heavy with L506A, L507A, A537D, S539K, A569N
chain: B4 chain with L113A, L114A, A144D, S146K, A176N
light: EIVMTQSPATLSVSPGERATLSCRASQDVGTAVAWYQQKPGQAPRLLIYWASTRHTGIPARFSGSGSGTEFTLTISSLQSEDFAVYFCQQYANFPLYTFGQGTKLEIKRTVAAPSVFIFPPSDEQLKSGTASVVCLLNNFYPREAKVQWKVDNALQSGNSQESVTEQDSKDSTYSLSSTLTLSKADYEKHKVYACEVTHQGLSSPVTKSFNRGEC
binding result [5]: no binding (tested: 25 nM)
